Where a chain is given by its changes, count along the chain named.
Legend:
[1] = molecular target: wild-type rat mu opioid receptor (rat); assay: cell-based or functional assay
[2] = molecular target: Asn150Ala mutant rat mu opioid receptor (rat) (UniProt P33535); assay: cell-based or functional assay
[3] = test system: α1 adrenergic receptor; settings: cited from earlier work
[4] = test system: PTH receptor; settings: COS-7 cells; cited from earlier work
[5] = test system: rat mu opioid receptor; assay: SRE-Luc/Gq5i luciferase reporter assay in HEK293 cells; format: cell-based; settings: SRE + Gq5i, HEK293 cells
Source text: A positive assay for Gαi coupling (i.e., one that yields an increase in luciferase activity upon receptor activation, instead of a negative assay, one that yields a decrease in luciferase activity upon receptor activation), provides a detectable output signal and less interassay variation. It was hypothesized that Gαi coupling could be detected by altering the signaling pathway generated by Gαi coupled receptors. A chimeric G protein (Gqi5, Broach and Thorner, Nature 384 (Suppl.): 14-16 (1996)) that contains the entire Gαq protein having five C-terminal amino acids from Gαi attached to the C-terminus of Gαq has been generated. This chimeric G protein is recognized as Gαi by Gαi coupled receptors, but switches the receptor induced signaling from Gαi to Gαq. This allows Gαi receptor coupling to be detected using a positive assay by use of the Gαq responsive SMS-Luc or SRE-Luc construct (Stratagene, La Jolla, Calif.). SMS and SRE preferably respond to Gαq mediated inositol and calcium production. Moreover, detection can be carried out in the absence of forskolin pre-stimulation of cells.
Reagents & Solutions: The cell culture media used in the assays described below was Gibco BRL #12100-046. This media was made according to manufacturer's recipe, pH adjusted to 7.2, filtered (0.22 micron pore), and supplemented with 1% Pen/Strep (Gibco #15140-122; 100% penicillin G 10,000 units/ml, and streptomycin 10,000 μg/ml) and 10% fetal bovine serum. Cell culture media lacking 10% fetal bovine serum was also generated. DNA used in the transfection experiments was purified and quantitated by measuring the absorbance at OD260. A LucLite Luciferase Assay Kit (Packard) was used to quantitate luciferase activity. Transfections were carried out using LipofectAMINE Reagent (Gibco #18324-012).
The rat mu opioid receptor is a Gαi coupled receptor. Therefore we chose to use the Gq5i reporter system, described in detail above (Broach and Thorner, supra), which switches the signaling pathway from Gαi to Gαq for reliable positive readout. HEK293 cells were transfected with the reporter construct SRE-Luc, an expression vector containing nucleic acid encoding Gq5i (Broach and Thorner, supra), and an expression vector containing nucleic acid encoding either the wild-type or the Asn150Ala mutant rat mu opioid receptor. Basal and ligand-stimulated luciferase activity was measured. The ligand used in this assay was [D—Ala^2—MePhe^4, Gly-ol^5]enkephalin] (DAMGO). As a negative control, HEK293 cells were transfected with pcDNA1 (empty vector DNA), SRE-Luc, and the expression vector containing nucleic acid encoding Gq5i (Broach and Thorner, supra).
The luciferase assay was carried out as follows. On day 1, HEK293 cells in a T75 flask were washed with 15 ml serum-free media (or PBS), trypsinized with 5 ml 0.05% trypsin-EDTA (Gibco #25300-062), incubated at 37° C. for 3 minutes at which time 6-7 ml complete HEK293 media (Gibco #12100-046) and 10% Fetal Bovine Serum (Intergen #1050-90) were added. Thereafter, cells were collected in 50 ml centrifuge tubes, pelleted at 800-900 rpm (RCF˜275), and resuspend in 20 ml complete media. The cells were counted using a haemocytometer and diluted to 85,000 cells/ml in complete media. Using a repeat pipettor or cell plater, 100 μl of cells were added to each well of a Primaria 96-well plate (Falcon #353872). Cells were then incubated at 37° C., 5% CO2 until use at 48 hours.
On day 3, cells were transfected using LipofectAMINE™ according to the manufacturer's protocol (Gibco #18324-012, Rockville, Md.).
On day 4, cells were stimulated as follows. Ligands for the receptor, either DAMGO or a non-peptide ligand (e.g., naloxone or naltrexone), were diluted to a desired concentration in serum-free media containing 0.15 mM PMSF (or other protease inhibitor(s)). […]

“[D-Ala^2-MePhe^4, Gly-ol^5]enkephalin (peptide)” showed an Average Ligand Stimulated Activity (Light Emission) (light emission) [1] of 87500 and an Average Ligand Stimulated Activity (Light Emission) (light emission) [2] of 87000.

B1: Asp142Ala mutant: α1 adrenergic receptor DRY motif mutant (protein, UniProt P18841 1-515, looked up, variant D142A)
Alpha-1B adrenergic receptor: MNPDLDTGHNTSAPAQWGELKDANFTGPNQTSSNSTLPQLDVTRAISVGLVLGAFILFAIVGNILVILSVACNRHLRTPTNYFIVNLAIADLLLSFTVLPFSATLEVLGYWVLGRIFCDIWAAVDVLCCTASILSLCAISIARYIGVRYSLQYPTLVTRRKAILALLSVWVLSTVISIGPLLGWKEPAPNDDKECGVTEEPFYALFSSLGSFYIPLAVILVMYCRVYIVAKRTTKNLEAGVMKEMSNSKELTLRIHSKNFHEDTLSSTKAKGHNPRSSIAVKLFKFSREKKAAKTLGIVVGMFILCWLPFFIALPLGSLFSTLKPPDAVFKVVFWLGYFNSCLNPIIYPCSSKEFKRAFMRILGCQCRSGRRRRRRRRLGACAYTYRPWTRGGSLERSQSRKDSLDDSGSCMSGSQRTLPSASPSPGYLGRGAQPPLELCAYPEWKSGALLSLPEPPGRRGRLDSGPLFTFKLLGEPESPGTEGDASNGGCDATTDLANGQPGFKSNMPLAPGHF
In the case of B1, the constitutive activity [3] is given as “constitutively active”.

B2: Arg143Lys mutant: α1 adrenergic receptor DRY motif mutant (protein, UniProt P18841 1-515, looked up, variant R143K)
Alpha-1B adrenergic receptor: B1 Alpha-1B adrenergic receptor with A142D, R143K
For B2, the constitutive activity [3] is given as “constitutively active”.

B3: Asn63Ala mutant: α1 adrenergic receptor mutant at conserved Asn63 (protein, UniProt P18841 1-515, looked up, variant N63A)
Alpha-1B adrenergic receptor: B1 Alpha-1B adrenergic receptor with N63A, A142D
In the case of B3, the constitutive activity [3] is listed as “constitutively active”.

B4: Cys128Phe mutant: α1 adrenergic receptor mutant in transmembrane domain III (protein, UniProt P18841 1-515, looked up, variant C128F)
Alpha-1B adrenergic receptor: B1 Alpha-1B adrenergic receptor with C128F, A142D
For B4, the constitutive activity [3] is given as “constitutively active”.

B5: Ala293Glu mutant: α1 adrenergic receptor mutant at carboxyl end of IC3 (protein, UniProt P18841 1-515, looked up, variant A293E)
Alpha-1B adrenergic receptor: B1 Alpha-1B adrenergic receptor with A142D, A293E
In the case of B5, the constitutive activity [3] is given as “constitutively active”.

B6: Ala204Val mutant: α1 adrenergic receptor mutant in transmembrane domain V (protein, UniProt P18841 1-515, looked up, variant A204V)
Alpha-1B adrenergic receptor: B1 Alpha-1B adrenergic receptor with A142D, A204V
In the case of B6, the constitutive activity [3] is given as “constitutively active”.

B7: His223Arg: polymorphic constitutively active PTH receptor mutant from Jansen's metaphyseal chondrodysplasia patients (protein, UniProt Q03431 27-593, looked up, variant H223R)
Parathyroid …: DADDVMTKEEQIFLLHRAQAQCEKRLKEVLQRPASIMESDKGWTSASTSGKPRKDKASGKLYPESEEDKEAPTGSRYRGRPCLPEWDHILCWPLGAPGEVVAVPCPDYIYDFNHKGHAYRRCDRNGSWELVPGHNRTWANYSECVKFLTNETREREVFDRLGMIYTVGYSVSLASLTVAVLILAYFRRLHCTRNYIRMHLFLSFMLRAVSIFVKDAVLYSGATLDEAERLTEEELRAIAQAPPPPATAAAGYAGCRVAVTFFLYFLATNYYWILVEGLYLHSLIFMAFFSEKKYLWGFTVFGWGLPAVFVAVWVSVRATLANTGCWDLSSGNKKWIIQVPILASIVLNFILFINIVRVLATKLRETNAGRCDTRQQYRKLLKSTLVLMPLFGVHYIVFMATPYTEVSGTLWQVQMHYEMLFNSFQGFFVAIIYCFCNGEVQAEIKKSWSRWTLALDFKRKARSGSSSYSYGPMVSHTSVTNVGPRVGLGLPLSPRLLPTATTNGHPQLPGHAKPGTPALETLETTPPAMAAPKDDGFLNGSCSGLDEEASGPERPPALLQEEWETVM
For B7, the “basal cyclic AMP accumulation vs cells expressing wild-type receptors” value [4] is given as “four to six times higher”.

B8: Thr410Pro: polymorphic constitutively active PTH receptor missense mutant (protein, UniProt Q03431 27-593, looked up, variant T410P)
Parathyroid …: B7 Parathyroid … with R197H, T384P
For B8, the “basal cyclic AMP accumulation vs cells expressing wild-type receptors” value [4] is given as “four to six times higher”.

B9: wild-type rat mu opioid receptor: wild-type rat mu opioid receptor expressed from an expression vector, comparator (protein, UniProt P33535 1-398, looked up)
Mu-type opioid receptor: MDSSTGPGNTSDCSDPLAQASCSPAPGSWLNLSHVDGNQSDPCGLNRTGLGGNDSLCPQTGSPSMVTAITIMALYSIVCVVGLFGNFLVMYVIVRYTKMKTATNIYIFNLALADALATSTLPFQSVNYLMGTWPFGTILCKIVISIDYYNMFTSIFTLCTMSVDRYIAVCHPVKALDFRTPRNAKIVNVCNWILSSAIGLPVMFMATTKYRQGSIDCTLTFSHPTWYWENLLKICVFIFAFIMPVLIITVCYGLMILRLKSVRMLSGSKEKDRNLRRITRMVLVVVAVFIVCWTPIHIYVIIKALITIPETTFQTVSWHFCIALGYTNSCLNPVLYAFLDENFKRCFREFCIPTSSTIEQQNSTRVRQNTREHPSTANTVDRTNHQLENLEAETAPLP
In the case of B9, the “Average Ligand Stimulated Activity (Light Emission)” value ([5]; ligand DAMGO) is reported as 87,461 and the “Average Basal Activity (Light Emission)” value ([5]; no ligand) is reported as 8,436.

Reference: patent publication US20020147170A1 (priority 2000, published 2002)
